Molecular target: PERK luminal domain W165A (UniProt Q9NZJ5)
Experiment: sedimentation velocity AUC

Chain of PERK luminal domain W165A (Q9NZJ5 105-403 W164A/Q166R): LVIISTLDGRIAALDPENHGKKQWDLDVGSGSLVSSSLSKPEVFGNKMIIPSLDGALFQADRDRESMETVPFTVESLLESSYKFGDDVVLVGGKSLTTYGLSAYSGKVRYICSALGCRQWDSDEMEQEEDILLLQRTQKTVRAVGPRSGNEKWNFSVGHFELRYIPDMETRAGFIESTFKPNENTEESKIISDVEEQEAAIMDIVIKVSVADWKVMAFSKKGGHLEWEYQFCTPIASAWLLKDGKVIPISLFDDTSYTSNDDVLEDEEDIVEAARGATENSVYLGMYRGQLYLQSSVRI

- other: % (change in tetramer against wild-type) (parent: 0): -23%
- other: tetramer (relative to dimer = 1) (parent: 0.73): 0.56
Substance: human PERK luminal domain (residues 105–403) (from UniProt Q9NZJ5) W165A

— publication PMC4474532
